Laboratory results: patent publication US5994296A, “Human mutant tissue factor compositions useful as tissue factor antagonists” (priority 1998, dated 1999)

B1: Ser-16: human tissue factor mutant with alanine substituted for Ser-16 (protein, UniProt P13726 33-295, looked up, variant S16A)
Tissue factor: SGTTNTVAAYNLTWKATNFKTILEWEPKPVNQVYTVQISTKSGDWKSKCFYTTDTECDLTDEIVKDVKQTYLARVFSYPAGNVESTGSAGEPLYENSPEFTPYLETNLGQPTIQSFEQVGTKVNVTVEDERTLVRRNNTFLSLRDVFGKDLIYTLYYWKSSSSGKKTAKTNTNEFLIDVDKGENYCFSVQAVIPSRTVNRKSTDSPVECMGQEKGEFREIFYIIGAVVFVVIILVIILAISLHKCRKAGVGQSWKENSPLNVS
B2: Asn-199: human tissue factor alanine mutant at Asn-199 (protein, UniProt P13726 33-295, looked up, variant N199A)
Tissue factor: SGTTNTVAAYNLTWKSTNFKTILEWEPKPVNQVYTVQISTKSGDWKSKCFYTTDTECDLTDEIVKDVKQTYLARVFSYPAGNVESTGSAGEPLYENSPEFTPYLETNLGQPTIQSFEQVGTKVNVTVEDERTLVRRNNTFLSLRDVFGKDLIYTLYYWKSSSSGKKTAKTNTNEFLIDVDKGENYCFSVQAVIPSRTVARKSTDSPVECMGQEKGEFREIFYIIGAVVFVVIILVIILAISLHKCRKAGVGQSWKENSPLNVS
B3: Arg-200/Lys-201: human tissue factor alanine double mutant at Arg-200 and Lys-201 (protein, UniProt P13726 33-295, looked up, variant R200A K201A)
Tissue factor: SGTTNTVAAYNLTWKSTNFKTILEWEPKPVNQVYTVQISTKSGDWKSKCFYTTDTECDLTDEIVKDVKQTYLARVFSYPAGNVESTGSAGEPLYENSPEFTPYLETNLGQPTIQSFEQVGTKVNVTVEDERTLVRRNNTFLSLRDVFGKDLIYTLYYWKSSSSGKKTAKTNTNEFLIDVDKGENYCFSVQAVIPSRTVNAASTDSPVECMGQEKGEFREIFYIIGAVVFVVIILVIILAISLHKCRKAGVGQSWKENSPLNVS
B4: Phe-19: human tissue factor mutant with alanine substituted for Phe-19 (protein, UniProt P13726 33-295, looked up, variant F19A)
Tissue factor: SGTTNTVAAYNLTWKSTNAKTILEWEPKPVNQVYTVQISTKSGDWKSKCFYTTDTECDLTDEIVKDVKQTYLARVFSYPAGNVESTGSAGEPLYENSPEFTPYLETNLGQPTIQSFEQVGTKVNVTVEDERTLVRRNNTFLSLRDVFGKDLIYTLYYWKSSSSGKKTAKTNTNEFLIDVDKGENYCFSVQAVIPSRTVNRKSTDSPVECMGQEKGEFREIFYIIGAVVFVVIILVIILAISLHKCRKAGVGQSWKENSPLNVS
B5: Tyr-71: human tissue factor mutant with alanine substituted for Tyr-71 (protein, UniProt P13726 33-295, looked up, variant Y71A)
Tissue factor: SGTTNTVAAYNLTWKSTNFKTILEWEPKPVNQVYTVQISTKSGDWKSKCFYTTDTECDLTDEIVKDVKQTALARVFSYPAGNVESTGSAGEPLYENSPEFTPYLETNLGQPTIQSFEQVGTKVNVTVEDERTLVRRNNTFLSLRDVFGKDLIYTLYYWKSSSSGKKTAKTNTNEFLIDVDKGENYCFSVQAVIPSRTVNRKSTDSPVECMGQEKGEFREIFYIIGAVVFVVIILVIILAISLHKCRKAGVGQSWKENSPLNVS
B6: S39-T40-S42: human tissue factor triple mutant with alanines at positions 39, 40 and 42 (protein, UniProt P13726 33-295, looked up, variant S39A T40A S42A)
Tissue factor: SGTTNTVAAYNLTWKSTNFKTILEWEPKPVNQVYTVQIAAKAGDWKSKCFYTTDTECDLTDEIVKDVKQTYLARVFSYPAGNVESTGSAGEPLYENSPEFTPYLETNLGQPTIQSFEQVGTKVNVTVEDERTLVRRNNTFLSLRDVFGKDLIYTLYYWKSSSSGKKTAKTNTNEFLIDVDKGENYCFSVQAVIPSRTVNRKSTDSPVECMGQEKGEFREIFYIIGAVVFVVIILVIILAISLHKCRKAGVGQSWKENSPLNVS
B7: Val-67: human tissue factor mutant with alanine substituted for Val-67 (protein, UniProt P13726 33-295, looked up, variant V67A)
Tissue factor: SGTTNTVAAYNLTWKSTNFKTILEWEPKPVNQVYTVQISTKSGDWKSKCFYTTDTECDLTDEIVKDAKQTYLARVFSYPAGNVESTGSAGEPLYENSPEFTPYLETNLGQPTIQSFEQVGTKVNVTVEDERTLVRRNNTFLSLRDVFGKDLIYTLYYWKSSSSGKKTAKTNTNEFLIDVDKGENYCFSVQAVIPSRTVNRKSTDSPVECMGQEKGEFREIFYIIGAVVFVVIILVIILAISLHKCRKAGVGQSWKENSPLNVS
B8: Val-198: human tissue factor alanine mutant at Val-198 (protein, UniProt P13726 33-295, looked up, variant V198A)
Tissue factor: SGTTNTVAAYNLTWKSTNFKTILEWEPKPVNQVYTVQISTKSGDWKSKCFYTTDTECDLTDEIVKDVKQTYLARVFSYPAGNVESTGSAGEPLYENSPEFTPYLETNLGQPTIQSFEQVGTKVNVTVEDERTLVRRNNTFLSLRDVFGKDLIYTLYYWKSSSSGKKTAKTNTNEFLIDVDKGENYCFSVQAVIPSRTANRKSTDSPVECMGQEKGEFREIFYIIGAVVFVVIILVIILAISLHKCRKAGVGQSWKENSPLNVS
B9: Asp-145: human tissue factor alanine mutant at Asp-145 (protein, UniProt P13726 33-295, looked up, variant D145A)
Tissue factor: SGTTNTVAAYNLTWKSTNFKTILEWEPKPVNQVYTVQISTKSGDWKSKCFYTTDTECDLTDEIVKDVKQTYLARVFSYPAGNVESTGSAGEPLYENSPEFTPYLETNLGQPTIQSFEQVGTKVNVTVEDERTLVRRNNTFLSLRAVFGKDLIYTLYYWKSSSSGKKTAKTNTNEFLIDVDKGENYCFSVQAVIPSRTVNRKSTDSPVECMGQEKGEFREIFYIIGAVVFVVIILVIILAISLHKCRKAGVGQSWKENSPLNVS
B10: Phe-147: human tissue factor alanine mutant at Phe-147 (protein, UniProt P13726 33-295, looked up, variant F147A)
Tissue factor: SGTTNTVAAYNLTWKSTNFKTILEWEPKPVNQVYTVQISTKSGDWKSKCFYTTDTECDLTDEIVKDVKQTYLARVFSYPAGNVESTGSAGEPLYENSPEFTPYLETNLGQPTIQSFEQVGTKVNVTVEDERTLVRRNNTFLSLRDVAGKDLIYTLYYWKSSSSGKKTAKTNTNEFLIDVDKGENYCFSVQAVIPSRTVNRKSTDSPVECMGQEKGEFREIFYIIGAVVFVVIILVIILAISLHKCRKAGVGQSWKENSPLNVS
B11: K65-D66-K68: human tissue factor triple alanine mutant at positions 65, 66 and 68 (protein, UniProt P13726 33-295, looked up, variant K65A D66A K68A)
Tissue factor: SGTTNTVAAYNLTWKSTNFKTILEWEPKPVNQVYTVQISTKSGDWKSKCFYTTDTECDLTDEIVAAVAQTYLARVFSYPAGNVESTGSAGEPLYENSPEFTPYLETNLGQPTIQSFEQVGTKVNVTVEDERTLVRRNNTFLSLRDVFGKDLIYTLYYWKSSSSGKKTAKTNTNEFLIDVDKGENYCFSVQAVIPSRTVNRKSTDSPVECMGQEKGEFREIFYIIGAVVFVVIILVIILAISLHKCRKAGVGQSWKENSPLNVS
B12: S16-T17-K20: human tissue factor triple mutant with alanines at positions 16, 17 and 20 (protein, UniProt P13726 33-295, looked up, variant S16A T17A K20A)
Tissue factor: SGTTNTVAAYNLTWKAANFATILEWEPKPVNQVYTVQISTKSGDWKSKCFYTTDTECDLTDEIVKDVKQTYLARVFSYPAGNVESTGSAGEPLYENSPEFTPYLETNLGQPTIQSFEQVGTKVNVTVEDERTLVRRNNTFLSLRDVFGKDLIYTLYYWKSSSSGKKTAKTNTNEFLIDVDKGENYCFSVQAVIPSRTVNRKSTDSPVECMGQEKGEFREIFYIIGAVVFVVIILVIILAISLHKCRKAGVGQSWKENSPLNVS
B13: Thr-17: human tissue factor mutant with alanine substituted for Thr-17 (protein, UniProt P13726 33-295, looked up, variant T17A)
Tissue factor: SGTTNTVAAYNLTWKSANFKTILEWEPKPVNQVYTVQISTKSGDWKSKCFYTTDTECDLTDEIVKDVKQTYLARVFSYPAGNVESTGSAGEPLYENSPEFTPYLETNLGQPTIQSFEQVGTKVNVTVEDERTLVRRNNTFLSLRDVFGKDLIYTLYYWKSSSSGKKTAKTNTNEFLIDVDKGENYCFSVQAVIPSRTVNRKSTDSPVECMGQEKGEFREIFYIIGAVVFVVIILVIILAISLHKCRKAGVGQSWKENSPLNVS
B14: Val-146: human tissue factor alanine mutant at Val-146 (protein, UniProt P13726 33-295, looked up, variant V146A)
Tissue factor: SGTTNTVAAYNLTWKSTNFKTILEWEPKPVNQVYTVQISTKSGDWKSKCFYTTDTECDLTDEIVKDVKQTYLARVFSYPAGNVESTGSAGEPLYENSPEFTPYLETNLGQPTIQSFEQVGTKVNVTVEDERTLVRRNNTFLSLRDAFGKDLIYTLYYWKSSSSGKKTAKTNTNEFLIDVDKGENYCFSVQAVIPSRTVNRKSTDSPVECMGQEKGEFREIFYIIGAVVFVVIILVIILAISLHKCRKAGVGQSWKENSPLNVS

System: recalcified plasma
Assay: one stage clotting (coagulation) assay of full-length TF mutants in CHO cell lysates
Assay type: biochemical
Settings: for reduction in specific functional activity (loss of function) relative to wild-type TF: coagulant activity normalized to antigen concentration, full-length mutants expressed in CHO cells; for reduction in tissue factor procoagulant cofactor activity when compared to wt-TF: summary statement in the description
Experimental: The full-length TF mutants prepared above were analyzed for function by coagulation assay. […] Coagulation factor deficient plasmas were purchased from George King Bio-medical. The chromogenic substrate, Spectrozyme FXa, was from American Diagnostica Inc. (Greenwich, Conn.).
An alternative approach was to use a polyvalent antibody purified by affinity for capturing TF followed by detection with the TF8-5G9 monoclonal antibody described above.
Initiation of coagulation by wild-type and mutant TF in recalcified plasma was determined after lysis of cell pellets from 2×10^6 cells/ml for each expressed full-length mutant with 15 mM octyl-glucopyranoside in HBS for 15 minutes at 37C. followed by a 3-fold dilution.
All data represented are based on at least three independent determinations performed in duplicate.

| Molecule | reduction in specific functional activity (loss of function) relative to wild-type TF | reduction in tissue factor procoagulant cofactor activity when compared to wt-TF [%] |
| --- | --- | --- |
| B1 | more than 70% | ≥ 75 |
| B2 | 30-80% | ≥ 75 |
| B3 | 30-80% | – |
| B4 | more than 70% | – |
| B5 | 98% | – |
| B6 | 43% | – |
| B7 | 53% | – |
| B8 | 30-80% | – |
| B9 | 30-50% | – |
| B10 | 30-50% | – |
| B11 | 70% | – |
| B12 | 98% | – |
| B13 | more than 70% | ≥ 75 |
| B14 | 30-50% | – |
